Measured values from publication PMC8897273 (Journal of molecular biology, 2022).
Like-named read-outs stand apart in the source and are kept apart here.

Legend:
[1] = target: T1, PABP1 (Homo sapiens, UniProt P11940 1-636); experiment: EMSA
[2] = target: T1, PABP1; experiment: EMSA; remark: listed apart in the source
[3] = target: human polyadenylate binding protein 1 (PABP1) (human, UniProt P11940 1-636); experiment: native gel or EMSA
human polyadenylate binding protein 1 (PABP1), sequence (P11940 whole entry): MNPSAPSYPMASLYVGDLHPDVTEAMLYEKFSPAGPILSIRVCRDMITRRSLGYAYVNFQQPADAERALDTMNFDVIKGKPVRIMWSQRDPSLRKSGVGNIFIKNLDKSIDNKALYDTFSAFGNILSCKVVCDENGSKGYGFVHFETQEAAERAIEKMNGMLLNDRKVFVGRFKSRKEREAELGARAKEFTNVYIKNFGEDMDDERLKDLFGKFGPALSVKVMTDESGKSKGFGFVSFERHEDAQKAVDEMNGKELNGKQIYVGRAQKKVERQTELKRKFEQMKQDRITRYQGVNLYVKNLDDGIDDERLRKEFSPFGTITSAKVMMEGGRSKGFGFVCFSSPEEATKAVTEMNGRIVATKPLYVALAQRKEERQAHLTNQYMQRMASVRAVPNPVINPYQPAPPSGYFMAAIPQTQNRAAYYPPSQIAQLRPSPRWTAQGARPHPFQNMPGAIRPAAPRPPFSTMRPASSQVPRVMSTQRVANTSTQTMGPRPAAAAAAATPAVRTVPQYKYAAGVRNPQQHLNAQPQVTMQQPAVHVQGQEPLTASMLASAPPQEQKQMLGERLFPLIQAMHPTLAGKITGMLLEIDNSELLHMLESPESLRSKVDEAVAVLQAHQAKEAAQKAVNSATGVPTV

T1 sequence (P11940 whole entry): as above

## AAAAAAAAAAAAAAAAAA (ssRNA) [Poly(A)18]
[1]
  binding result: binds

## GCUAUCCAGAUUCUGAUU (ssRNA) [ssCR1]
[2]
  binding result: no binding

B1: human eIF4G1 fragment (88–653) (domain or fragment, UniProt Q04637-1 88-653, looked up)
chain: MMIPSQISYPASQGAYYIPGQGRSTYVVPTQQYPVQPGAPGFYPGASPTEFGTYAGAYYPAQGVQQFPTGVAPTPVLMNQPPQIAPKRERKTIRIRDPNQGGKDITEEIMSGARTASTPTPPQTGGGLEPQANGETPQVAVIVRPDDRSQGAIIADRPGLPGPEHSPSESQPSSPSPTPSPSPVLEPGSEPNLAVLSIPGDTMTTIQMSVEESTPISRETGEPYRLSPEPTPLAEPILEVEVTLSKPVPESEFSSSPLQAPTPLASHTVEIHEPNGMVPSEDLEPEVESSPELAPPPACPSESPVPIAPTAQPEELLNGAPSPPAVDLSPVSEPEEQAKEVTASMAPPTIPSATPATAPSATSPAQEEEMEEEEEEEEGEAGEAGEAESEKGGEELLPPESTPIPANLSQNLEAAAATQVAVSVPKRRRKIKELNKKEAVGDLLDAFKEANPAVPEVENQPPAGSNPGPESEGSGVPPRPEEADETWDSKEDKIHNAENIQPGEQKYEYKSDQWKPLNLEEKKRYDREFLLGFQFIFASMQKPEGLPHISDVVLDKANKTPLRPLDT
[3]
  binding result: binds
